Experiment: yeast display, Sf9 membrane polyspecificity reagent, FACS + sequencing; frameworks hold sequencing errors
Method in brief: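 Polyreactivity labels are assigned by the sorting gate from which each nanobody was recovered. The gates were low and high (top ~1%), set on anti-HA fluorescence for expression and streptavidin fluorescence for reagent binding. Before sorting, galactose-induced (36–48 hours) yeast display cells were stained for 1 hour at 4 °C with 10% biotinylated, detergent-solubilized Sf9 membrane reagent.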

Row | Sequence | polyreactivity (PSR sort gate)
1 | QVQLVESGGGLVQAGGSLRLSCAASGGIFPGYAMGWYRQAPGKETELVAAISGSGSSTYYADSVKGRFTISRDHAKNTVYVQMNSLKPEDTAVYYCNVVTRVLPTRFDYWGQGTQVTVSS | high polyreactivity
2 | QVQLVESGGGLVQARGSLRLSCAASGSTFIRYAMGWYRQAPGKERELVAAITWRGGSTYYADSVKGRFTISRDNAKNTVYLQMNSLKPEDTAVYYCAARDRDTRNYYWGQGTQGTVSS | high polyreactivity
3 | QVQLVESGVGLVQAGGSLRLSSAASGSIFHSYAMGWYRQAPGKERELVASITASGDSTYYADSVKGRFTISRDNAKNTVYLPMNSLKPEDTAVFYCNTQAVYGGGEGGYDYWGQGTQVTVSS | low polyreactivity
4 | QVQLVESGGGLVQAGGSLRLSCAASGNTFIRNVMGWYRQAPGKERELVAGSRTGGSTFYADSVKGRFTISRDNAKNTVYLQMNSLKPEDTAVYYCNADVGDEGNLPYVIRPMDYWGQGTQVTVSS | low polyreactivity
5 | QVQHVESGGGLVQAGGSLRLSCAASGGIFYYYAMGWYRPAPGKERELVATISNGGSTYYADSVKGRFTISRDNAKNTVYLQMNSLNPEDTAVYYCAARDGRQPRGYRLVTYYAPMYYWGQGTQVTVSS | high polyreactivity
6 | QVQIVQSGGGLVQAGGSLRLSCAASGSTITYNAMGWYRQAPGKERELVAAITVSDGSTYYADSVKGRFTISRDNAKNTVYLQMNSLKPEDTAVYYCNAYAVYLRYLWYDFWGQGTQVTVSS | low polyreactivity
7 | QVQLVESGGGLVQAGGSLRLSCAASGSTFLNYALGWYRQAPGKERELVASISYSAGSTYYADSVKGRFTISRDNAKNTVYLQMNSLKPEDTAVYYCAARLARAGYWRRNYYYWGQGTQVTVSS | high polyreactivity
8 | QVQLVESGGGLVQEGGSLSLSCAASGFTFYYYAMGLYRQAPGKERELVASISWRGGSTYYADSVKGRFTISRDNAKNTVYLQMNSLKPEDTAVYYCAAQKRGSPGYRRDYWGQGTQVAVSS | high polyreactivity
9 | QVQLVESGGGLVQAGGSLRLSCAASGGIFVTYTMGWYRQAPGKERELVAGINSRSGSTYADSVKGRFTISRDNAKNTVYLQMNSLKLEDTAVYYCAADRIDLGRASRYGYWGQGTQVTVSS | low polyreactivity
10 | QVQLGESGGGLVQAGGSLRLSCAASGRTFPYNAMGWYRQAPGKERELVAAISSGGSTNYADSVKGRFTISRDNAKNTVYLQMNSLKQEDTAVYYCAVTGWPRYTWYSYGYWGQGTQVTLSS | low polyreactivity
11 | QVQLVESGGGLVQAGGSLRLSCAASGFTFTYYTMGWYRQAPGKESELVAAISWSGGRTYYADSVKGRFTISRDNAKNTVYLQMNSLKPEDTAVYYCAAVYSSYYSSSYGYWGQGTQVTVSS | high polyreactivity
12 | QVQLVESGGGLVQAGGSLRLSCAASGSTFYTYAMGWYRKAPGKERELDAAISWSGGSTYYADSVKGRFTISRDNAKNTVYLQMNSLKPEDTAVYYCAADRPYAGRYWKGYHSALYDYWGQGTQVTVSS | low polyreactivity
13 | QVQLVESGGGLVQAGGSLRLSSAASGSIFGYNAIGWYRQAPGKERELVAAISYSGGRTYYADSVKGRFTISRDNAKNTVYLQMNCLKAEDTAVYYCAKVLQYRTFYTGYDYWGQGTQVTVSS | high polyreactivity
14 | QVQLVESGGGLVQAGGSLRLSCAASGRTFSWYTMGWYRQAPGNERELVAVINYSGGSTYYADSVKGRFTISRDNAKNTVYLQMTSLKPEDTAVYYCAARNVVTGYRYDYWGQGTQVTVSS | high polyreactivity
15 | QVQLVESGGGLVQAGGSLRLSCAASGRTFYGYAMGWYRQAPGKERELVAAISSDTGGTDDTYYADSVKGRFTISRDNAKNTVYLQMNSLKPEDTAVYYCAAETEQGIIVTGLAYDYWGQGTQVTVSS | low polyreactivity
16 | QVQLVESGGGLVQAGGSLRLSCAASGSIFRPYAMGWYRQAPGKERELVATITWRGGSTTYADSVKGRFTISRDNAKNTVYLQMNSLKPEDTAVYYCAADASWELFAWAHYDYWGQGTQVTVSS | low polyreactivity
17 | QVQLVESGGGLVQAGGSLRLSCAASGITFGDNAMGWYRQAPGKERELVAAITLSDVDTYADSVKGRFTISRDNAKNTVYLQMNSLKPEDTAVYYCAADYYAHQDYRFDYWGQGTQVTVSS | low polyreactivity
18 | QVQLVESCGGLVQAGGSLRLSCAASGSTFDGYAMGWYRQAPVKERELVAAISASGGSTYYADSVKGRFTISRDNAKNTVYLQMNSLKPEDTAVYYCNSEPFDLWAFYYCYVYGYYHWGQGTQVTVSS | high polyreactivity
19 | KVQLVESGGGLVQAGGSLRLSCAASGRILVYNVMGWYRQAPGKEMEFVAAITSRDTSTYYADSVKGRFTISRDNAKNPVYLQMNSLKPEDTAVYYCAVRVGARVRYYSWGQGTQVTVSS | high polyreactivity
20 | QVQLVESGGGLVKAGGSLRLSCAASGRIFKYNAMGWYRQAPGKERELVAVITSGGSTYYADSVKGRFTISRDNAKNTVYLQMNSLKPEDTAVYYWGQGTQVTVSS | low polyreactivity
21 | QVQLVESGGGLVQAGGSLRLSCAASGLIFQYYAMGWYRQAPGKERELVASISGSGSSTYYADSVKGRFTISRDNEKNTVYLQMYSLKPEDTAVYYCAAGWGRGWYDYWGQGTQVTVSS | high polyreactivity
22 | QVQLVESGGGLVQAGGSLRLSCAASGFIFWHYAMGWYRQAPGKERELVAAISWSGGRTYYADSVKGRFTISRDNAKNTVYLQMNSLKPEDTAVYYCARSKRVTPYEYDYWGQGTQVTVSS | high polyreactivity

Row | Sequence | polyreactivity (PSR sort gate)
23 | QVQLVESGGGLVQAGGSLRLRCAASGSTFAYYAMGWYRQAPGKERELVAAITASATNTYYADSVKGRFTISRDHAKNTVYLQMNSLKPEDTAVYYCAADDVDVEHQASWDDYDSWGQGTQVTVSS | low polyreactivity
24 | QVQLVESGGGLVQAGGSLRLSCAASGRILWYNAMGWYRQAPGKERELVAAITSDGSTDYADSVKGRFTISRDNAKNTVYLQMNSLKPEDTAVYYCAKLYIRQYPTWYRYYYWGQGTQVTVSS | high polyreactivity
25 | QVQLVESGGGLVQAGGSLRLSCAASGFTFPVYAMGWYRPAPGIEREFVAASTKSGGGTYYADSVKGRCTLSRDNAKKTVYGQMNSLKPEETAVYYCAKASRRFLTLGSDYWGQGTQVTVSS | high polyreactivity
26 | QVQLVESGGGLVQAGGSLRLSCAASGSIFYTNVMGWYRQAPGKERELVARIDSGGSTNYADSVKGRFTISRDNAKNTVFLQMNSLNPEDTAVYYCAADWYIYDYWGQGTQVTVSS | low polyreactivity
27 | QVQLVESGGGLVQAGGILRLSCAASGRIFGSYAMGWYRQAPGKERELVAVITKRGDSTYYADSVKGRFTISRDNAKNTVYLQMNSLKPEDTAVYYCNARVYPGYSFWAVFGYDYWGQGTQVTVSS | low polyreactivity
28 | QVQLVESGGCIVQAGGSLRLSCADSGSIFDWYAMVWYRQAPGKERELVAAINEGGGSTYYADSVKGRFTISRDNANNTVYLQMNSLKPEDHAVYYCAAGDYYLQDNYWGQGTQVTVSS | low polyreactivity
29 | QVQLVESGGGLVQAGGSLRLSCAASGRIFTINAMGWYRQAPGKERELVAAITGSAASTYYADSVKGRFTISRDNAKNTVYLQMNSLKPEDTAVYYCAAGYRRIPYEYWGQATQVTVSS | high polyreactivity
30 | QVQLVESGGGLVQAGGSLRLICAASGSTFNYNAMGWYRQAPGKERELVAAISSSGGSTYYADSVKGRFTISRDNAKYTVYLQMNSLKREDTAVYYCAASGGYGQYNYWGQGTQVTVSS | low polyreactivity
31 | QVQLLESGGGLVQAGGSLRLSCAASGITFSRNAMGWYRQAPGKERELVATITSGGSTNYADSVKGRFTITRDNAMNTVYLQMISLKPEDTAVYYCYAVWNTFISGRSYEYWGQGTQVTVSS | low polyreactivity
32 | QVQLVESGGGLVQAGGSLRLSCAASGSISYSYAMGWYRQAPGKERELVAAISWRGVSTYYADSVKGRFTISRDNAKNTVYLQMNSLKPEDTAVYYCNAVHHYPEHIGGGYWGQGTQVTVSS | low polyreactivity
33 | QVQLVESGGGLVQAGGSLRLSCAASGSTFGDYAMGWSRQAPGKERELVAAISRGGSTYYADSVKGRFTISRDNEKNTVYLQMNSLKPEDTAVYYCNKDEGYSASPDGSTFDYWGQGTQVTVSS | low polyreactivity
34 | QVQLVESGGGLVQAGGSLRLSCAASGFTFVYYAMGWYRQAPGKERELVAAITSADSTNYADSVKGRFTISRDNAKNTVYLQMNSLKPEDTAVYYCNAVYDYYRQSKWTMVYWGQGTQVTVSS | low polyreactivity
35 | QVQLVESGGGLVQAGGSLRLSCAASGSTFVNNAMGWYIQAPGKERELVAAIRSSDGRTYYADSVKGRFTISRDNAKNTVYLQMNSLKPEDTAVYYCATAVGTKYRTRIFEYYYWGQGTQVTVSS | high polyreactivity
36 | QVQLVESGGGLVQAGGSLLLSCAASGYTLEYNAMGWNRQAPGKEREFVARIRWSGSSTYYADSVKGRCTISRDNAKNTVYLQMNSLKPEDTAVYYCNADDGYYVGLSSAIYDYWGQGTQVTVSS | high polyreactivity
37 | QVQLVESGGGLVQAGGSLRLSCAASGRTFRSNAMGWYRQAPGKEREFVAAISGRGGITYYADSVKGRFTISRDNAKNTVYLQMNSLKPEDTAVYYCNADYWQAGDYLYYFVYYGGYDYWGQGTQVTVSS | low polyreactivity
38 | QVQLVESGGGLVQAGGSLRLSCAASGSIFYKYMGWYRQAPGKERELVAAITWSGGSTYYADSVKGRFTISRDNAKNTVYLQMNSLKPEDTAVYYCAARDYTRYGYGYWGQGTQVTVSS | high polyreactivity
39 | QVQLVESGGGLVQAGGSLRLSCAASGRTLADNAMGWYRQAPGKERELVAAITFSGDTTYYADSVKGRFTISRDNAKNTVYLQMNSLKPEDTAVYYCAAESSDPRAYDYWGQGTQVTVSS | low polyreactivity
40 | QVQLQESGRRPGSAGVSPRMSCAASGNIFWVAVMCRYRQAPGKERELVASIGFGCTTYYADSVKCRFTISRDNAKITVYLQMLSLKPFDTAVYYCAAPHYDWGELDYWGQGTQVPVSS | low polyreactivity
41 | QVQLVESGGGLVQAGGSLRLICAASGASFFDKDMGWYRQAPGKERELVAAAITARGGSTYYADSVKGRFTISRDNAKNTVYLQMNSLKPEDTAVYYCAAGRPGELDYWGQGTQVTVSS | low polyreactivity
42 | QVQLVESGGGLVQAGGSLRLSCAASGPIIGQYAMVWYIQAPGKERELVAAITYSGGRTYYADSVKGRFTISRDNAKNTVYLQMNSLKPEDTAVYYCAARGRASFERRGGYYYWGQVTQVTVSS | high polyreactivity
43 | QVQLVESVGGLVHAGGSLRLSCAASGSTFRYNAMGWYRQAPGKDRELVAAISWSGGSTYYADSVKGRFTISRDNAKNTVYFQMNSLIPEDTAVYYCAKVYFWGALSPDKYDEDYWGQGTQVTVSS | low polyreactivity
